From patent publication US11653679B2, “High-purity steviol glycosides” (PureCircle Sdn Bhd, priority 2014, dated 2023)

What was measured:
Format in all cases: biochemical
[1] = Conversion of Rebaudioside E to Rebaudioside D with UGT76G1 lysate (Example 25); settings: UGT76G1 thawed lysate, 0.5 mM Rebaudioside E, pH 7.5, 30° C.
Method: The total volume of the reaction was 5.0 mL with the following composition: 100 mM potassium phosphate buffer pH 7.5, 3 mM MgCl2, 2.5 mM UDP-glucose, 0.5 mM Rebaudioside E and 500 μL of UGT76G1 thawed lysate (UGT76G1 gene was cloned in pET30a+ vector and expressed in E. coli BL21 (DE3)). The reactions were run at 30° C. on an orbitary shaker at 135 rpm. For sampling 300 μL of the reaction mixture was quenched with 30 μL of 2N H2SO4 and 270 μL of methanol/water (6/4). The samples were immediately centrifuged and kept at 10° C. before analysis by HPLC (CAD detection).

[2] = Transformation of Rebaudioside D to Rebaudioside M with UGT76G1 (Examples 6, 13), HPLC; settings: after 120 h, in-vitro produced UGT76G1, 0.5 mM Rebaudioside D, 30° C.
Method: The total volume of the reaction was 2 mL with the following composition: 50 mM sodium phosphate buffer pH 7.2, 3 mM MgCl2, 3.8 mM UDP-glucose, 0.5 mM Rebaudioside D and 180 μL of in-vitro produced UGT76G1. The reactions were run at 30° C. on an orbitary shaker at 135 rpm. For each sample, 400 μL of reaction mixture was quenched with 40 μL of 2N H2SO4 and 360 μL of 60% MeOH. After centrifugation, the supernatant was analyzed by HPLC (CAD).
(§1) Activity tests were performed on a 5 mL scale with 500 μL of thawed lysate for the transformation of Stevioside to Rebaudioside A and Rebaudioside D to Rebaudioside M using 0.5 mM of substrate, 2.5 mM of UDP-Glucose and 3 mM MgCl2 in 50 mM Sodium Phosphate buffer at pH 7.2. Samples were taken and analyzed by HPLC.

[3] = Transformation of Stevioside to Rebaudioside A with UGT76G1 lysate (Examples 4, 13), HPLC; settings: in-vivo produced UGT76G1 thawed lysate, 0.5 mM Stevioside, 30° C., HPLC (CAD)
Method: The total volume of the reaction was 5.0 mL with the following composition: 50 mM sodium phosphate buffer pH 7.2, 3 mM MgCl2, 2.5 mM UDP-glucose, 0.5 mM Stevioside and 500 μl, of UGT76G1 thawed lysate. The reactions were run at 30° C. on an orbitary shaker at 135 rpm. For each sample, 460 μL of the reaction mixture was quenched with 40 μL of 2N H2SO4 and 420 μL of methanol/water (6/4). The samples were immediately centrifuged and kept at 10° C. before analysis by HPLC (CAD).
as §1

B1: UGT76G1: UDP-glucosyltransferase UGT76G1 [Stevia rebaudiana], Genbank AAR06912.1, SEQ ID NO:11 (protein, listed as Stevia rebaudiana)
chain: MENKTETTVRRRRRIILFPVPFQGHINPILQLANVLYSKGFSITIFHTNFNKPKTSNYPHFTFRFILDNDPQDERISNLPTHGPLAGMRIPIINEHGADELRRELELLMLASEEDEEVSCLITDALWYFAQSVADSLNLRRLVLMTSSLFNFHAHVSLPQFDELGYLDPDDKTRLEEQASGFPMLKVKDIKSAYSNWQILKEILGKMIKQTKASSGVIWNSFKELEESELETVIREIPAPSFLIPLPKHLTASSSSLLDHDRTVFQWLDQQPPSSVLYVSFGSTSEVDEKDFLEIARGLVDSKQSFLWVVRPGFVKGSTWVEPLPDGFLGERGRIVKWVPQQEVLAHGAIGAFWTHSGWNSTLESVCEGVPMIFSDFGLDQPLNARYMSDVLKVGVYLENGWERGEIANAIRRVMVDEEGEYIRQNARVLKQKADVSLMKGGSSYESLESLVSYISSL
conversion of Rebaudioside E to Rebaudioside D [1]: complete conversion | conversion of rebaudioside D to rebaudioside M [2]: 80% | conversion of stevioside to rebaudioside A [3]: almost complete conversion
